How the values were obtained:
Conditions in all cases: tags: N-term SV40 NLS, C-term NP NLS
[1] = molecular target: T1, xCas12i (SiCas12i, Cas12i12) (unidentified); assay: cell_activity; 5' TTN PAM; EGFP reporter HEK293T; DR-T1
T1 chain: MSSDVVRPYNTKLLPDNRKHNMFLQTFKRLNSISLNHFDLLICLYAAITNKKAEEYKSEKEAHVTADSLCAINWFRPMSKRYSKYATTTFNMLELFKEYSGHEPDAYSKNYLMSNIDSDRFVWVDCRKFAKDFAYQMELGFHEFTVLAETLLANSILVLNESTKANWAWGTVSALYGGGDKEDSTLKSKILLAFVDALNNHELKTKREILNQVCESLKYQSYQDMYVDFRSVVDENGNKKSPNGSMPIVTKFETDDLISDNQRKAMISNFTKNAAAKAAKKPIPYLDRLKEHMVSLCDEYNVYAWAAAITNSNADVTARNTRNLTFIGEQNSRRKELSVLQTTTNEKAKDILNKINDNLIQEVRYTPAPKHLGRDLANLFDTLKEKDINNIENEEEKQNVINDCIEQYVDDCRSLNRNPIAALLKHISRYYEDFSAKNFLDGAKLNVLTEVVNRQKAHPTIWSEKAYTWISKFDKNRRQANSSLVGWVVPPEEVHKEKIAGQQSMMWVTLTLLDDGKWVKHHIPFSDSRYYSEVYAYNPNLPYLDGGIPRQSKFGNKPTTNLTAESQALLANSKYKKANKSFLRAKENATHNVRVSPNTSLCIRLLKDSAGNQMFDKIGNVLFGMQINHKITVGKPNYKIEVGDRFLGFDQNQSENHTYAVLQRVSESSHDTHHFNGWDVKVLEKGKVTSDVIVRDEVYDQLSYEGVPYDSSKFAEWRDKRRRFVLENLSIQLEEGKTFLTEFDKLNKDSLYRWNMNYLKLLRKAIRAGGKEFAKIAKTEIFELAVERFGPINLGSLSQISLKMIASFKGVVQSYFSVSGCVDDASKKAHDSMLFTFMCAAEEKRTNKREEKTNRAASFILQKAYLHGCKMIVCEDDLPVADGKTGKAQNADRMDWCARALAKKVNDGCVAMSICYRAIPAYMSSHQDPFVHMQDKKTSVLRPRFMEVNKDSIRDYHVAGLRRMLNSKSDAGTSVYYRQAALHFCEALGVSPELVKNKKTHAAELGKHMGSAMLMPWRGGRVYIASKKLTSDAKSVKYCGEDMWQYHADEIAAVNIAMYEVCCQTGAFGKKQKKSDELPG
Description: To vary xCas12i's dsDNA cleavage activity and expand its scope of PAM site recognition, the applicant engineered xCas12i protein via mutagenesis and screened for mutants with higher dsDNA cleavage activity and broader PAM using a dual plasmid fluorescent reporter system similar to the dual plasmid fluorescent reporter system in Example 1, except that the EGxxxxFP-targeting guide RNA (SEQ ID NO: 51; “crON”) coding sequence operably linked to U6 promoter was not located on the expression plasmid together with the xCas12i (or its mutant) coding sequence (SEQ ID NO: 31) but located on the reporter plasmid together with the BFP-P2A-EGxxxxFP coding sequence (SEQ ID NO: 41) (referring to “On-Target Reporter” in FIG. 1B). […] The applicant then individually transfected the expression plasmid and the reporter plasmid into HEK293T cells and analyzed them by FACS (FIG. 1B). […]

xCas12i-A165R = molecular target: T2, xCas12i-A165R (synthetic construct, A165R); assay: cell_activity; 5' TTN PAM; EGFP reporter HEK293T
T2 chain: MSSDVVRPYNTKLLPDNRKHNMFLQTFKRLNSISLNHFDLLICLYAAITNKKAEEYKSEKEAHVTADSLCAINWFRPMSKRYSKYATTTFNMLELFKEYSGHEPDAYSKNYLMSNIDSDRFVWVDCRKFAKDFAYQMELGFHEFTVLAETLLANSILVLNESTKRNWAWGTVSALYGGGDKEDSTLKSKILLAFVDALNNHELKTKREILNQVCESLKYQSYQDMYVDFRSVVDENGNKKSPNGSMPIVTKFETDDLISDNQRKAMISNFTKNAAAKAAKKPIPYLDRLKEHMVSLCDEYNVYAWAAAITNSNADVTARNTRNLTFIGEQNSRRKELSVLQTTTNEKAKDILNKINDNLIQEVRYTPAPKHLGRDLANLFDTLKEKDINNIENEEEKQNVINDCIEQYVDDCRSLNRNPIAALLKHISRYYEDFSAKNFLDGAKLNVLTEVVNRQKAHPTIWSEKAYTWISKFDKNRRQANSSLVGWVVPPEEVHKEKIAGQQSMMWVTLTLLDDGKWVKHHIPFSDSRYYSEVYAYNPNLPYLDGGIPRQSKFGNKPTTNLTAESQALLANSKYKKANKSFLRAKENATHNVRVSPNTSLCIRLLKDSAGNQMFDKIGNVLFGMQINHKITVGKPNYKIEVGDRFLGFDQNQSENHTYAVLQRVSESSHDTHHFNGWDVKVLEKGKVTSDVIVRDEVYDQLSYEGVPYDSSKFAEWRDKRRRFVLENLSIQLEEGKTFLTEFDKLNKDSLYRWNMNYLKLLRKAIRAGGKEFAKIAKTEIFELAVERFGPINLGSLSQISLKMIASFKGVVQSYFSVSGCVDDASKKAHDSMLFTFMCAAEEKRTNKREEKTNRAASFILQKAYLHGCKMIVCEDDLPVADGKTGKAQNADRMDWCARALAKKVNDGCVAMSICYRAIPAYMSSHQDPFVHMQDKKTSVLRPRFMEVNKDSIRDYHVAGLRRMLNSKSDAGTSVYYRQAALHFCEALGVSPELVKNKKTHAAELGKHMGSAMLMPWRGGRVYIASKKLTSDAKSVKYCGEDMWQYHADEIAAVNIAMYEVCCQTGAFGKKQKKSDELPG

[2] = molecular target: T3, Cas12Max (xCas12i-N243R, v1.1) (synthetic construct); assay: cell_activity; 5' TTN PAM; EGFP reporter HEK293T
T3 chain: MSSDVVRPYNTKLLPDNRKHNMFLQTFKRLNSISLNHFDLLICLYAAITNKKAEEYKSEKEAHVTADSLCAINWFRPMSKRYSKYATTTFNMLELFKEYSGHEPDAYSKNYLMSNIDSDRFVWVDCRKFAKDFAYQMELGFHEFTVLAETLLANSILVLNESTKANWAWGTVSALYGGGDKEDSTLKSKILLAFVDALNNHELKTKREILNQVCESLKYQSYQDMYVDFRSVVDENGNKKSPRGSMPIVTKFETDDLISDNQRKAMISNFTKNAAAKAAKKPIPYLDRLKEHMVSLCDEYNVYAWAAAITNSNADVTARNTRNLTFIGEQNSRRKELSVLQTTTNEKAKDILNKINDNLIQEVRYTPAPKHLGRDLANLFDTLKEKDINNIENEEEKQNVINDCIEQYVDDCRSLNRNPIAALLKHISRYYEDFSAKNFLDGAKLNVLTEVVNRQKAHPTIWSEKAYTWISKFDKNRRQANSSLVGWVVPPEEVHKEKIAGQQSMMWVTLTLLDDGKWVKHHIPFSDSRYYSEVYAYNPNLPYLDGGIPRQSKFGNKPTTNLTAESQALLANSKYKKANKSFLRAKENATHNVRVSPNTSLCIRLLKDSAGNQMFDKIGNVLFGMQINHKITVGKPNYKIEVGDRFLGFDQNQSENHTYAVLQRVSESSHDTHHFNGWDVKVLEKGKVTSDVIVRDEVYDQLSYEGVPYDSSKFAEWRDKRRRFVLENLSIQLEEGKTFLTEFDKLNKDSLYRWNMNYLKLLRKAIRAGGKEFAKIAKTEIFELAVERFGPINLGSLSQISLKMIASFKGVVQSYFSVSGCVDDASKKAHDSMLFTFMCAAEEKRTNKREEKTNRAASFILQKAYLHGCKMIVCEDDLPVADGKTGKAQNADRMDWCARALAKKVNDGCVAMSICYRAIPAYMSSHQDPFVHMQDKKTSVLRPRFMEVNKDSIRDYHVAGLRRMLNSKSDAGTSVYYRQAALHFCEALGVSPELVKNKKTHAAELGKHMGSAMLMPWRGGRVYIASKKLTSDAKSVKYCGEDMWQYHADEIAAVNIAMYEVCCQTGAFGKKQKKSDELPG

B1: crEGFP guide with DR-T1 ; EGxxxxFP insertion target (ssRNA ; dsDNA)
RNA: AUGACUCAGAAAUGUGUCCCCAGUUGACACCCAUUACAGUAGGAGCAUAC
DNA 1: GGATCCGTGTCTTTCCCATTACAGTAGGAGCATACGGGAGACAAGCTTTG
DNA 2: CAAAGCTTGTCTCCCGTATGCTCCTACTGTAATGGGAAAGACACGGATCC
[1]
  binding signal: 1 fold of WT
xCas12i-A165R
  binding signal: 3.15 fold of WT
[2]
  binding signal: 3.61 fold of WT

Source: patent US20250101394, “NOVEL CRISPR-CAS12I SYSTEMS AND USES THEREOF” (Huidagene Therapeutics (Singapore) PTE. LTD., published 2025)
